In US20020147326A1, “Hexameric fusion proteins and uses therefor” (SmithKline Beecham Corporation, priority 1996, published 2002):
“Also recorded” adds a separate entry of the source.

What was measured:
[1] = target: T1, biotinylated CD80-Igαtp binding to immobilized CD28-Ig (Homo sapiens, UniProt P10747); assay: Competition ELISA of biotinylated CD80-Igαtp binding to immobilized CD28-Ig; settings: competitor added simultaneously; wells coated with CD28-Ig
T1 construct: native leader and extracellular domain peptide of CD28 and CD80 were grafted onto a human IgG1 heavy chain Fc region; human IgG1 Fc (hinge/CH2/CH3); made in house; host or cells: CHO cells
Procedure: The wells of 96 well microtiter plates (Immunlon 4, Dynatech Laboratories) were coated with CD28-Ig (1, 2, or4 μg/ml) in 100 μl/well of 0.1 M sodium bicarbonate, pH 9.4 and incubated overnite @4° C. The wells were washed with PBS (phosphate buffered saline) and blocked with 0.5% gelatin in PBS for 1 hour. Following an additional PBS wash, biotinylated CD80-Igαtp was serially diluted in PBS containing 1 mg/ml BSA, 0.05% Tween directly in the wells in a final volume of 0.1 ml and incubated for 1 hour. The wells were washed with PBS and bound CD80-Igαtp protein was measured by the addition of 0.1 ml of strepavidin-HRP (streptavidin conjugated with horseradish peroxidase (Southern Biotech)) at a 1:2000 dilution for 1 hour, followed by washing and color development with 100 μl ABTS substrate (Kierkegaard and Perry Laboratories Inc., Maryland) and measurement of absorbance at 405 nm. In some cases the color reactions were arrested by addition of 100 μl of 1% SDS prior to measurement of absorbance. In this figure, “CD28-Fc”, “CTLA4-Fc”, and “B7-FcA” denote CD28-Ig, CTLA4-Ig, and CD80-Igαtp, respectively.

[2] = tested on: murine T-cell hybridoma cell lines expressing human CD28 (PCD28.1.s2.1, DCL27CD28wt.s2); assay: IL-2 production by CD28 T-cell hybridomas (CTLL-2 bioassay); assay type: cell-based; settings: addition of CTLA4-Ig
From the text: The CD80- and CD86-Igαtp proteins were compared to the corresponding CD80 and CD86-Ig proteins to determine their ability to stimulate cells expressing human CD28 using two murine T-cell hybridoma cell lines expressing human CD28, PCD28.1.s2.1 and DCL27CD28wt.s2. The PCD28.1.s2.1 cell line was described in Example 1, part 3. The DCL27CD28wt.s2 cell line was created by transfection of the DC27 cell line [F. Pages et al., Nature, 369:327-329 (1994); F. Pages et al., J. Biol. Chem., 271(16):9403-9409 (1996)] with the same CD28 expression vector used for the PCD28.1.s2.1 cells [D. Couez et al., Molecular Immunology, 31:47-57 (1994)]. These cell lines were examined for their ability to produce IL-2 in response to activation with CD80- and CD86-Ig in comparison with the corresponding Igαtp fusion proteins. 96-well plates were coated with or without a CD3 antibody together with the CD80 and CD86 fusion proteins. This was accomplished by first incubating the plates with a previously determined suboptimal concentration of hamster […] CD3 antibody (MAb 145-2C11, Boerhinger-Mannheim Biochemicals) for two hours at room temperature (RT) or with just buffer alone, washing the plates with PBS, adding goat anti-human Ig heavy chain (GAH-IgHc, Sigma Chemical Co.) for an additional two hours at RT, washing again and coating with different concentrations of the CD80 or CD86 fusion protein for 16-18 hours at 4° C., washing again, and finally blocking for 30 min. with 0.2% BSA-PBS. T cells (1×10^5/well) were added in 150 μl medium into duplicate wells. For comparison, the soluble fusion proteins and the 248.23.2 CD28 MAb (IgM) [A. Morretta, University of Genova, Italy] were added to non-coated wells. T cells were incubated in the wells for 24 hours at 37° C., and supernatants were collected and evaluated for IL-2 levels in a standard CTLL-2 bioassay [S. M. Gillis et al., J. Immunol., 120:2027 (1978)]. Briefly, 1×10^4 IL-2 dependent CTLL-2 cells (ATCC)/well in 75 μl medium were added to an equal volume of test supernatant and incubated for 24 hours at 37° C. The cells were pulsed with 10 μl of 5 mg/ml MTT (Sigma Chemical Co.) for 4 hours, and lysed with […] 10% SDS/0.01N HCl solution for 14-16 hours. OD570 readings were converted into ng/ml of IL-2 based on a standard curve generated by treating cells with known concentrations of IL-2.
IL-2 promoter activity and IL-2 levels were measured similarly to that described in parts A and B above, except that proliferation of the reader CTLL-2 cells was measured by ^3H-thymidine incorporation.

“CTLA4-Ig: binding protein/Fc construct for human CTLA4 with human IgG1 Fc” was tested, and the “inhibition of biotinylated CD80-Igαtp binding to immobilized CD28-Ig” value [1] was “inhibited; also recorded: blocked the binding sites on CD80-Igαtp” and the “blockade of the response to CD80- and CD86-Igαtp” value [2] was “complete blockade”.
